{
  "source": "paper PMC2173048",
  "about": "(The Journal of Cell Biology, 2002)",
  "molecular_target": "T1, recombinant Kap121p (yeast, UniProt P32337 1-1089)",
  "T1 sequence (looked up)": "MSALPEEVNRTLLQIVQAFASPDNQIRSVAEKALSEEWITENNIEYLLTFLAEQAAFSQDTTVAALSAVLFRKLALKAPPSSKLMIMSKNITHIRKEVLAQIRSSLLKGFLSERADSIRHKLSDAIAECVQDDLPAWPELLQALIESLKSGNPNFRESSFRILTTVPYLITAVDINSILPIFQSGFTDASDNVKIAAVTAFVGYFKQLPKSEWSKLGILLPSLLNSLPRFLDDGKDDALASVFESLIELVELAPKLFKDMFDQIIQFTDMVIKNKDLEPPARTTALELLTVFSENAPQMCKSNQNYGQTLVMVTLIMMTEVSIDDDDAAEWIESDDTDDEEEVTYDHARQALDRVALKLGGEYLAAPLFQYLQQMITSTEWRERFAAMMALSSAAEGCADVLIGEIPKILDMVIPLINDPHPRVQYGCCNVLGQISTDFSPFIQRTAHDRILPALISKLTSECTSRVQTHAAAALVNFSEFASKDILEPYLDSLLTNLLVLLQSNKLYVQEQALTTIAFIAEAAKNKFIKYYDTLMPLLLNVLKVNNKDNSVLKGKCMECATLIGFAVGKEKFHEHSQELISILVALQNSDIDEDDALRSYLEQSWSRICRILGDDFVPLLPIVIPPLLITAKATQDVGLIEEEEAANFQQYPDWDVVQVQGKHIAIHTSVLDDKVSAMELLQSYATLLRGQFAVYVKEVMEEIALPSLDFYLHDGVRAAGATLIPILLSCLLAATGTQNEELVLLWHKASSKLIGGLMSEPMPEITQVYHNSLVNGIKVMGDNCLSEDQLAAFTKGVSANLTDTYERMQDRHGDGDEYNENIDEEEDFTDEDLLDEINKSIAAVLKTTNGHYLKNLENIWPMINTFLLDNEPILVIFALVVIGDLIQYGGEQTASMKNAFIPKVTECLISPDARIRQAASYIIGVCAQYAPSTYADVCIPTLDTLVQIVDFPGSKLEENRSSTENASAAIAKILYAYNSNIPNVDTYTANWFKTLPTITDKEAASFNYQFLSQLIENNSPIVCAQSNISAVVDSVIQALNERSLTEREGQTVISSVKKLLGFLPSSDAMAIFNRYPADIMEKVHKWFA",
  "assay": "pull-down",
  "data": [
    {"binder": "RNAEFKVSKNSTSFKNPRRLEIKDGRSLFLRNRGKIHSGVLSSIESDL (domain or fragment, yeast, UniProt Q03790 401-448, looked up)", "note": "[GST-401–448]", "values": [
      {"measurement": "binding result", "value": "binds"}
    ]}
  ]
}
